This passage reports Ka and Kd results from patent US12214052 (dated 2025).

Experiment [1] deals with CSP-NPNA5.5-10x-1210 Fab. In words: ITC.
For experiment [2], the target named is CSP-NPNA5.5-8x-1210 Fab. The experiment in a line: ITC. In general terms: In ITC the heat of successive injections is recorded.
Experiment [3] addresses CSP-NPNA5.5-8x-1210 Fab. In words: ITC. This is another data set of the same source.
Experiment [4] addresses CSP-NPNA5.5-12x-1210 Fab. The experiment in a line: ITC.
Experiment [5] has as its target CSP-NPNA5.5-12x-1210 Fab. The experiment in a line: ITC. This is another data set of the same source.
Experiment [6] concerns the target CSP-NPNA5.5-10x-1210 Fab. The experiment in a line: ITC. The source holds these as a separate data set.
For experiment [7], the target named is full length PfCSP (NF54 strain) (Plasmodium falciparum (NF54 strain), UniProt P19597 20-384). The experiment in a line: BLI; avid. (In general: In BLI a coated tip is dipped into the sample, and binding shifts an interference pattern.)
Chain of full length PfCSP (NF54 strain) (P19597 20-384): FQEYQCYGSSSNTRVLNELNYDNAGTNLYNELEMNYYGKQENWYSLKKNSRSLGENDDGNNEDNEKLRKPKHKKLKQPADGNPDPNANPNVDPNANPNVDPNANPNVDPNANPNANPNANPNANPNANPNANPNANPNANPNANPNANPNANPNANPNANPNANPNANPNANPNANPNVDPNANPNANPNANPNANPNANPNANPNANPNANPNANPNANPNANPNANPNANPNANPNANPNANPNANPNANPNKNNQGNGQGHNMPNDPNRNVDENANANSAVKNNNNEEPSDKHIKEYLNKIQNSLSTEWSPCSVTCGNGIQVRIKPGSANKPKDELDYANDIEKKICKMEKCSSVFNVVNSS

B1: 1210 Fab (Fab, V domains shown)
VH: QVQLVESGGGVVQPGRSLRLSCAASGFTFSNYGMHWVRQAPGKGLEWVAVIWYDGSKKYYADSVKGRFTISRDNSKNTLYLQMNSLRAEDTAVYYCARVRDSSDYYGDAFDIWGQGTMVTVSS
VL: DIQMTQSPSTLSASVGDRVTITCRASQSISSWLAWYQQKPGKAPKLLIYKASNLESGVPLRFSGSGSGTEFTLTISSLQPDDFATYYCQQYNNYWTFGQGTKVEIK
By Kd is commonly meant the free concentration of one partner at which half of the binding sites on the other are occupied at equilibrium, for simple one-to-one binding. Read a high Kd as a looser complex. Regarding B1, the results for the Ka in experiment [1], in experiment [2] and in experiment [4] were 2.19e+06 M⁻¹, 3e+06 M⁻¹ and 5.73e+06 M⁻¹, respectively. For the same molecule, the results for the Kd in experiment [3], in experiment [5] and in experiment [6] were 333 nM, 174 nM and 456 nM, respectively.

B2: 1210_YY IgG (antibody, V domains shown)
VH: QVQLVESGGGVVQPGRSLRLSCAASGFTFSNYGMHWVRQAPGKGLEWVAVIWYDGSKKYYADSVKGRFTISRDNSKNTLYLQMNSLRAEDTAVYYCARVRDSSYYYGDAFDIWGQGTMVTVSS
VL: DIQMTQSPSTLSASVGDRVTITCRASQSISSWLAWYQQKPGKAPKLLIYKASNLESGVPLRFSGSGSGTEFTLTISSLQPDDFATYYCQQYYNYWTFGQGTKVEIK
B2 returned a Kd in experiment [7] of 0.66 nM.

B3: antibody 1210 (IgG) (antibody, V domains shown)
VH: QVQLVESGGGVVQPGRSLRLSCAASGFTFSNYGMHWVRQAPGKGLEWVAVIWYDGSKKYYADSVKGRFTISRDNSKNTLYLQMNSLRAEDTAVYYCARVRDSSDYYGDAFDIWGQGTMVTVSS
VL: DIQMTQSPSTLSASVGDRVTITCRASQSISSWLAWYQQKPGKAPKLLIYKASNLESGVPLRFSGSGSGTEFTLTISSLQPDDFATYYCQQYNNYWTFGQGTKVEIK
For B3, the Kd in experiment [7] is < 0.001 nM.
